Assay results published in patent publication US20250215091A1, “Anti-GAL3 Antibodies and Compositions” (Les Laboratoires Servier, priority 2022, published 2025).
Residue numbers refer to the chain shown, from its start. One block for each molecule: values may come before it.

Key:
[1] = tested on: human Gal3 full-length (Hu-Gal3-FL) and CRD domain (Hu-Gal3-CRD); assay: IgG cross-reactivity ELISA on human Gal3; assay type: binding; details: purified IgGs 15-20 μg/mL; FIG. 3
Experimental: (§1) Anti-Gal3 antibodies human/mouse cross-reactivity was tested by ELISA on human Gal3 full-length (Hu-Gal3-FL) and CRD domain (Hu-Gal3-CRD), and on murine Gal3 (m-Gal3-FL).
(§2) Hu-Gal3-FL, Hu-Gal3-CRD and m-Gal3-FL were immobilized at 3 μg/mL via their histidine tag on functionalized microplates. Purified IgGs were added into the wells (15-20 μg/mL final concentration) and detected with an anti-Fab.HRP antibody. A control rabbit antibody directed against Hu-Gal3 (Abcam ab53082 reference) was used at 5 μg/mL as antigen-coating positive control and detected with an anti-rabbit.HRP secondary antibody (7074S-Cell Signaling reference).

murine Gal3 (m-Gal3-FL) = molecular target: T1, murine Gal3 (m-Gal3-FL) (Mus musculus, UniProt P16110); assay: IgG cross-reactivity ELISA on murine Gal3; assay type: binding; details: purified IgGs 15-20 μg/mL; FIG. 3
T1 construct: Determination of Kd values on human and mouse full-length Gal3; purchased Novalix
Experimental: as §1, §2

Hu-Gal3-FL = molecular target: T2, Hu-Gal3-FL (Homo sapiens, UniProt P17931); assay: ELISA dose-response EC50 on human Gal3; details: ELISA binding on Hu-Gal3-FL
T2 construct: made in house
Experimental: (§3) To determine the half maximal effective concentration (EC50) of the antibodies, ELISA dose-response experiments were performed on Hu-Gal3-FL and on m-Gal3-FL.
(§4) Hu-Gal3-FL and m-Gal3-FL were immobilized at 3 μg/mL through their His-tag on functionalized microplates as before. A 3.3-fold serial dilution was carried-out with the purified IgGs, added to the wells containing immobilized Hu-Gal3-FL or m-Gal3-FL and detected with an anti-Fab.HRP antibody.
(§5) Human/mouse Gal3 EC50 ratio were estimated according to EC50 values (sigmoidal dose-response equation: Y=Bottom+X*(Top−Bottom)/(EC50+X)), a low ratio indicating a high cross-reactivity.

m-Gal3-FL = molecular target: T3, m-Gal3-FL (Mus musculus, UniProt P16110); assay: ELISA dose-response EC50 on mouse Gal3; details: ELISA binding on m-Gal3-FL
T3 construct: made in house
Experimental: as §3, §4, §5

[2] = tested on: murine model of HOCI-induced fibrosis; assay: HOCI-induced murine fibrosis model: skin thickness; assay type: in vivo, mice; details: first experiment
Experimental: (§6) In a first experiment, control mice (n=12) received a daily intradermal injection of 300 μL of sterile phosphate buffer saline (PBS) for 5 consecutive days per week, for a duration of 42 days. HOCI alone and HOCI with antibody (HOCI-antibody) treated mice (n=12 per group) received a daily intradermal injection of 300 μL of HOCI for 5 consecutive days per week, for a duration of 42 days. Antibody-treated mice also received a subcutaneous injection of 20 mg/kg antibody, starting at day minus one and every 5 days between day 5 and day 40. Each antibody was solubilized in sterile, endotoxin-free PBS before injection. In a second experiment, the same protocol was applied, except that duration of the study was 63 days and antibodies were given every 7 days starting at day minus 1 until day 62.
(§7) Mice that received daily injection of HOCI were also treated by intratracheal instillation of 0.5 mg/kg of TD139 compound (HOCI-TD139), a small molecule Gal3 inhibitor. In a first experiment, the administrations started from day 21 and the compound was given every 3 days until day 39. In a second experiment, the administrations started from day 20 and the compound was given every 3 days until day 62. TD139 was initially dissolved in 100% DMSO then diluted 50-fold in endotoxin-free PBS before administration.
The evolution of skin thickness was monitored by using an external caliper, every seven days until sacrifice.

[3] = tested on: murine model of HOCI-induced fibrosis; assay: HOCI-induced murine fibrosis model: skin and lung collagen (Picrosirius red); assay type: in vivo, mice; details: first experiment
Experimental: as §6, §7
At the day of study termination of the first experiment (day 42), skin and lung samples were taken, formalin-fixed and processed to individual paraffin wax blocks. Sections of skin and lung were cut from the blocks and, after rehydration, stained with Picrosirius Red coloration according to the manufacturer's protocol. Subsequently, each slide was examined and remotely analyzed employing the web-based Image J software

plasma IL-6 = assay: HOCI-induced murine fibrosis model: plasma IL-6 (MSD); assay type: in vivo, mice; details: first experiment, day 42; vs HOCI group; FIG. 9
Experimental: as §6, §7
(§8) In the first experiment, a mixed effect model with repeated measurements was performed on Control group, HOCI treated group, HOCI-antibody- and HOCI-TD139-treated groups. The impact of HOCI administration on plasma IL-6 and IL-5 levels was evaluated compared to the control group. The impact of antibody and TD139 treatments was compared to the HOCI group (FIG. 9). IL-6 and IL-5 were quantified by using the MSD technology from Mesoscale.

plasma IL-5 = assay: HOCI-induced murine fibrosis model: plasma IL-5 (MSD); assay type: in vivo, mice; details: first experiment, day 42; vs HOCI group; FIG. 9
Experimental: as §6, §7, §8

plasma Gal3 = assay: HOCI-induced murine fibrosis model: plasma Gal3 (ELISA); assay type: in vivo, mice; details: first experiment, day 42; FIG. 10
Experimental: as §6, §7
In the first experiment, the plasma levels of Gal3 were measured at day minus 1 (before antibody administration) and at termination day (day 42) using a mouse Galectin-3 DuoSet ELISA kit (R&D Systems, DY1197) according to the manufacturer's instructions. Plasma samples were diluted 1:200 in order to fit with the dynamic range of the assay.

[4] = tested on: murine model of bleomycin-induced fibrosis; assay: Bleomycin-induced murine lung fibrosis model: body weight and body weight metrics; assay type: in vivo, mice
Experimental: (§9) Control bleomycin mice named ‘Bleo’ received an administration of 1.65 mg/kg bleomycin by the oropharyngeal route on Day 1. […] Antibody-treated mice also received an administration of 1.65 mg/kg bleomycin by the oropharyngeal route on Day 1 and a subcutaneous injection of 20 mg/kg antibody, starting on day minus one and on days 4, 8, 12, 16 and 20. Each antibody was solubilized in sterile, endotoxin-free PBS before injection. Mice that received bleomycin were also treated by oropharyngeal administration of 0.5 mg/kg of TD139 compound (Bleo-TD139), a small molecule Gal3 inhibitor, starting on day 12 and every 2 days until day 20. TD139 was initially dissolved in 100% DMSO.
Mice were weighed daily. Their growth curves are represented on FIG. 12. Control mice had normal growth with a mean percent increase of 6.4% of their initial body weight measured on day minus 1.
Body weight metrics were assessed by using two parameters called Time to weight growth (TWG) and Time to baseline (TTB), shown on FIG. 13. Time to weight growth corresponds to the point of inflection when mice show an ascending growth curve and start to regain weight within the course of the experiment. Time to baseline corresponds to the number of days required for mice to recover their initial body weight (day minus 1). The median TWG was 10 days for the untreated bleomycin group. […] TD139 compound had no efficacy on this parameter (p-value 0.53).

[5] = tested on: murine model of bleomycin-induced fibrosis; assay: Bleomycin-induced murine lung fibrosis model: Modified Ashcroft fibrosis score; assay type: in vivo, mice
Experimental: as §9
Mice were submitted for terminal euthanasia on day 21. The lungs were collected for histopathological examination and gravity inflation-fixed with 10% neutral buffered formalin (NBF) before being immersion fixed in NBF.
Sections were taken and then placed on three slides as indicated by the code numbers on FIG. 14.
Three longitudinal sections parallel to and bisecting the main stem bronchus were trimmed from the left lung and right caudal lung lobes and mounted in cassettes 01 and 02, respectively. The right cranial, middle and accessory lung lobes were sectioned longitudinally and mounted in cassette 03. All sections were stained with picrosirius red and scored in a blinded manner by a certified veterinary pathologist using the Modified Ashcroft fibrosis score (0-8), where “0” corresponds to “normality (no fibrosis) and “8” corresponds to the highest possible fibrosis score, as described by Hübner et al. (2008) but based on assessment across the whole section of lung.

rat model of ARDS [6] = assay: Rat ARDS model (LPS challenge): neutrophils counts in BALF; assay type: in vivo; details: antibodies 14 mg/kg x3 prior to LPS; dexamethasone 10 mg/kg oral; vs LPS group; FIG. 16
Experimental: (§10) Positive control rats received 3 doses of sterile phosphate buffer at day minus 11, minus 6 and minus 1 prior LPS challenge (0.25 mg/kg by subcutaneous route at day 1). Negative control rats received one oral dose of Dexamethasone at 10 mg/kg (dissolved in 0.5% carboxymethyl cellulose in deionized water) 2 hours prior LPS challenge (0.25 mg/kg by subcutaneous route at day 1). LPS (lipopolysaccharide) causes an acute inflammatory response, whereas dexamethasone has anti-inflammatory effects thus being the reference treatment in this model.
(§11) Antibody-treated rats received 3 doses of antibodies (14 mg/kg) at day minus 11, minus 6 and minus 1 prior to LPS challenge (0.25 mg/kg by subcutaneous route at day 1). Each antibody was solubilized in sterile PBS before injection.
(§12) Control rats of the experiment received 3 doses of sterile phosphate buffer at day minus 11, minus 6 and minus 1 without LPS challenge at day 1.
(§13) The impact of anti-Gal3 antibody treatment in LPS challenged rats were evaluated by quantification of neutrophils in Bronchoalveolar Lavage Fluid and compared to the positive control group (LPS challenge with PBS treatment) (FIG. 16). […] Neutrophils numeration levels were decreased after treatment with anti-inflammatory dexamethasone.

rat model of ARDS [7] = assay: Rat ARDS model (LPS challenge): total BALF protein (BCA assay); assay type: in vivo; details: antibodies 14 mg/kg x3 prior to LPS; dexamethasone 10 mg/kg oral; vs LPS group; FIG. 17
Experimental: as §10, §11, §12
as §13, with “proteins (by BCA assay)” for “neutrophils”, “BALF” for “Bronchoalveolar Lavage Fluid”, “17). The presence of protein in BALF reflects the damage to the air-blood barrier.” for “16).”, “Total BALF protein” for “Neutrophils”

plasma TNF alpha = assay: Rat ARDS model (LPS challenge): plasma TNF alpha (MSD); assay type: in vivo; details: 4 h following LPS challenge; vs LPS group; FIG. 18
Experimental: as §10, §11, §12
For all rats, plasma sampling was performed 4 h following LPS challenge.
The impact of anti-Gal3 antibody treatment in LPS challenged rats were evaluated on plasma cytokine levels, namely TNF alpha and KC-GRO cytokines, and compared to the positive control group (LPS challenge with PBS treatment) (respectively FIG. 18A and FIG. 18B). TNF alpha and KC-GRO were quantified by using the MSD technology from Mesoscale.

T2 sequence (P17931 whole entry): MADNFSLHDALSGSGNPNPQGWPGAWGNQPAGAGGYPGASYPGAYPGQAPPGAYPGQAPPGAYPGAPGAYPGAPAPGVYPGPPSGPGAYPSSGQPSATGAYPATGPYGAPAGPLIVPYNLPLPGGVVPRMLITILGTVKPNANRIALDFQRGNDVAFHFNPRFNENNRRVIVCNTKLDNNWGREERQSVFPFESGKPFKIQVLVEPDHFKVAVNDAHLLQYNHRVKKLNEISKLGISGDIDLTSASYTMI
T3 sequence (P16110 whole entry): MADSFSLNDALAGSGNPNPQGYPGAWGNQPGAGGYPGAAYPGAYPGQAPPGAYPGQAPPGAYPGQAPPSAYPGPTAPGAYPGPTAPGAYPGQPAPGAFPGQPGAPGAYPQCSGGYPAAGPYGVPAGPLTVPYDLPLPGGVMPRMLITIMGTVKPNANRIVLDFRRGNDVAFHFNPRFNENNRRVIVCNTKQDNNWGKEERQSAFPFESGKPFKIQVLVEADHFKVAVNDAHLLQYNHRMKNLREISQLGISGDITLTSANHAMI
T1 sequence (P16110 whole entry): as above
Sequence of human Gal3 full-length (Hu-Gal3-FL) and CRD domain (Hu-Gal3-CRD) (P17931 118-250 limits assumed): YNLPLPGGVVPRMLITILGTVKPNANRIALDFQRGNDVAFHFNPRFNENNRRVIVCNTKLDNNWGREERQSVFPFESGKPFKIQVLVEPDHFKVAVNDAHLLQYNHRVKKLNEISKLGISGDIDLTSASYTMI

IgG binding to human Gal3 (Hu-Gal3-FL, Hu-Gal3-CRD) by ELISA [1]: Lower binding signals | IgG binding to murine Gal3 (m-Gal3-FL) by ELISA (murine Gal3 (m-Gal3-FL)): Lower binding signals | hGal3 EC50 (Hu-Gal3-FL): too high to be determined | mGal3 EC50 (m-Gal3-FL): too high to be determined
B1: B12: anti-Gal3 monoclonal antibody, IgG1 format; VH SEQ ID NO 54, VL SEQ ID NO 55 (antibody, V domains shown)
VH: EVQLVESGGSLVKPGGSLRLSCAASGFTFSNDDMNWVRQAPGKGLEWISSIDGSSRSIYYADFVKGRFTISRDNAKNSLYLQMNSLRAEDTAVYYCVRSSGYSGGGMDVWGRGTLVTVSS
VL: QSVLTQPASVSGSPGQSITISCAGTSSDVGGSYNVAWYQQHPGKAPKLMIYSDSYRPSGVSNRFSGSKSGNTASLTISGLQAEDEADYYCSSYTSNSARVFGGGTKLEIK
modifications: IgG1 constant region

B2: D11: anti-Gal3 monoclonal antibody, IgG1 format; VH SEQ ID NO 40, VL SEQ ID NO 41 (antibody, V domains shown)
VH: EVQLVESGGSLVKPGGSLRLSCAASGFTFSNYNMNWVRQAPGKGLEWISSIYGSSRYIYYADFVKGRFTISRDNAKNSLYLQMNSLRAEDTAVYYCVRSSYGGMDVWGRGTLVTVSS
VL: B1 VL with S52Y, S95G, N96Y, A98T
modifications: IgG1 constant region
HOCI-induced increase in skin thickness ([2]; 42 days, antibody 20 mg/kg s.c., TD139 0.5 mg/kg intratracheal, vs HOCI group, FIG. 7A): significantly reduced | day from which reduction of skin thickness was significant ([2]; sustained effect until day 42): 21 days | lung collagen levels ([3]; day 42, FIG. 8A): restored lung collagen levels to those of control mice | skin collagen levels ([3]; day 42, vs HOCI group, FIG. 8B): significantly reduced | plasma IL-6 levels (plasma IL-6): significantly decreased the plasma IL-6 levels to values similar to those of control mice | plasma IL-5 levels (plasma IL-5): decreased significantly | plasma Gal3 levels (plasma Gal3): restored the plasma Gal3 levels to values similar to those of the control group | reduction of median Time to baseline (TTB) ([4]; median TTB 20 days for untreated bleomycin group, FIG. 13): 2.7 days | reduction of median Time to weight growth (TWG) ([4]; median TWG 10 days for untreated bleomycin group, FIG. 13): 1.3 days | mean percent weight increase on day 21 compared to day minus 1 ([4]; untreated bleomycin group +1.9%, control mice 6.4%): 4.4% | frequency of animals with fibrosis score of 2 ([5]; day 21, 7.4% in untreated bleomycin group): 17.8% | frequency of animals with fibrosis score of 3 ([5]; day 21, 43.2% for bleo group): 61.1% | frequency of animals with fibrosis score of 4 ([5]; day 21, 44.4% in bleo group): 20% | neutrophils counts in BALF (rat model of ARDS [6]): also decreased | total BALF protein (rat model of ARDS [7]): also decreased | TNF alpha plasma levels (plasma TNF alpha): also decreased, displaying an intermediary profile

hGal3 EC50 (Hu-Gal3-FL): too high to be determined | mGal3 EC50 (m-Gal3-FL): too high to be determined
B3: E12: anti-Gal3 monoclonal antibody, IgG1 format; VH SEQ ID NO 56, VL SEQ ID NO 57 (antibody, V domains shown)
VH: B2 VH with N33A, Y57S, S100N, Y101N, G102A
VL: B1 VL with S32Y, N34D, A36S, S52Y, N96Y, A98T
IgG binding to murine Gal3 (m-Gal3-FL) by ELISA (murine Gal3 (m-Gal3-FL)): much lower on the m-Gal3 than on the Hu-Gal3-FL and Hu-Gal3-CRD
